± gives the uncertainty stated by the source.

The source of these data is the Human Domainome abundance scans (Beltran et al. 2025).

B1: Tripartite motif-containing protein 49C, residues 87 to 133; numbered along this chain, P0CI26 (parent)
chain: SSEEQMCGTHRETKKIFCEVDRSLLCLLCSSSQEHRYHRHRPIEWAA

In this series the parent is B1. As to the kind of experiment: abundance fitness (aPCA) (normalised: wild type 0, dead -1); higher = more abundant; growth selection in yeast, the domain comes from the species named. As to conditions: Homo sapiens.
Take SSEEQMCGTHRETKIIFCEVDRSLLCLLCSSSQEHRYHRHRPIEWAA [K15I]: the abundance fitness was -0.327 ± 0.14. The value for SSEEQMCGTHRETKLIFCEVDRSLLCLLCSSSQEHRYHRHRPIEWAA [K15L] was -0.3 ± 0.089; that for SSEEQMCGTHRETKTIFCEVDRSLLCLLCSSSQEHRYHRHRPIEWAA [K15T] was -0.119 ± 0.11. Consider SSEEQMCGTHRETKKIFCEVDRSLLCLLCSSSQEHRYDRHRPIEWAA [H38D], for which the abundance fitness was -0.521 ± 0.14.

As to SSEEQMCGTHRETKKIFCEVDRSLLCLLCSSSQEHRYFRHRPIEWAA [H38F], the abundance fitness is -0.271 ± 0.2. With SSEEQMCGTHRETKKIFCEVDRSLLCLLCSSSQEHRYSRHRPIEWAA [H38S], the abundance fitness is -0.691 ± 0.097. The value for SSEEQMCGTHRETKKIFCEVDRSLLCLLCSSSQEHRYMRHRPIEWAA [H38M] was -0.717 ± 0.13; that for SSEEQMCGTHRETKKIFCEVDRSLLCLLCSSSQEHRYHRHRKIEWAA [P42K] was 0.11 ± 0.12; that for SSEEQMCGTHRETKKIFCEVDRSLLCLLCSSSQEHRYHRHRAIEWAA [P42A] was 0.022 ± 0.078. Take SSEEQMCGTHRETKKIFCEVDRSLLCLLCSSSQEHRYHRHRVIEWAA [P42V]: the abundance fitness is -0.393 ± 0.099. As to SSEEQMCGTHRETKKIFCEVDRSLLCLLCSSSQEHRYHRHRHIEWAA [P42H], the abundance fitness was -0.264 ± 0.082. The value for SSEEQMCGTHRETKKIFCEVDRSLLCLLCSSSQEHRYHRHAPIEWAA [R41A] was -0.084 ± 0.12; that for SSEEQMCGTHRETKKIFCEVDRSLLCLLCSSSQEHRYHRHFPIEWAA [R41F] was -0.29 ± 0.19; that for SSEEQMTGTHRETKKIFCEVDRSLLCLLCSSSQEHRYHRHRPIEWAA [C7T] was -0.861 ± 0.11. For SSEEQMCGTHRETKKIFCEVDRSYLCLLCSSSQEHRYHRHRPIEWAA [L24Y], the abundance fitness was -0.085 ± 0.13. For the variant SSEEQMCGTHRETKKIFCEVDRSTLCLLCSSSQEHRYHRHRPIEWAA [L24T], the abundance fitness was -0.099 ± 0.15.

For the variant SSEEQMCGTHRETKKIFCEVDRSQLCLLCSSSQEHRYHRHRPIEWAA [L24Q], the abundance fitness was -0.159 ± 0.11.

Turning to SSEEQMCGTHRETKKIFCEVDRSPLCLLCSSSQEHRYHRHRPIEWAA [L24P], the abundance fitness is -0.217 ± 0.13.

Take SSEEQMCGTHRETKKIFCEVDRSCLCLLCSSSQEHRYHRHRPIEWAA [L24C]: the abundance fitness was -0.174 ± 0.12. The value for SSEEQMCGTHRETKKIFCEVDRSELCLLCSSSQEHRYHRHRPIEWAA [L24E] was -0.106 ± 0.12; that for SSEEQMCGTHRETKKIFCEVDRSILCLLCSSSQEHRYHRHRPIEWAA [L24I] was -0.61 ± 0.2; that for SFEEQMCGTHRETKKIFCEVDRSLLCLLCSSSQEHRYHRHRPIEWAA [S2F] was 0.205 ± 0.14. As for SSEEQMCGTHRETKKIFCEVDRSLLCLLCSSSQEHRYHRHRPVEWAA [I43V], the abundance fitness was found to be 0.023 ± 0.2.

Take SSEEQMCGTHRETKKIFCEVDWSLLCLLCSSSQEHRYHRHRPIEWAA [R22W]: the abundance fitness is -0.504 ± 0.16. The value for SSEEQMCGTHRETKKIFCEVDVSLLCLLCSSSQEHRYHRHRPIEWAA [R22V] was -0.575 ± 0.098; that for SSEEQMCGTHRETKKIFCEVDDSLLCLLCSSSQEHRYHRHRPIEWAA [R22D] was -0.101 ± 0.26.

For SSEEQMCGTHREDKKIFCEVDRSLLCLLCSSSQEHRYHRHRPIEWAA [T13D], the abundance fitness was -0.364 ± 0.14. The value for SSEEQMCGTHREVKKIFCEVDRSLLCLLCSSSQEHRYHRHRPIEWAA [T13V] was -0.033 ± 0.085; that for SSEEQMCGTHRETKKIFCEVDRSLLCLLCSSPQEHRYHRHRPIEWAA [S32P] was -0.442 ± 0.14. Regarding SSEEQMCGTHRETKKIFCEVDRSLLCLLCSSAQEHRYHRHRPIEWAA [S32A], the abundance fitness was -0.222 ± 0.095. The value for SSEEQMCGTHRETKKIFCEVDRSLLCLLCSSWQEHRYHRHRPIEWAA [S32W] was -0.464 ± 0.13; that for SSEYQMCGTHRETKKIFCEVDRSLLCLLCSSSQEHRYHRHRPIEWAA [E4Y] was -0.35 ± 0.21. The value for SSEEQMCGTHRETKKIFCEVDRSLLCLLCSSSQEHRYHRHRPIEGAA [W45G] was 0.236 ± 0.078; that for SSEEQMCGTHRETKKIFCEVDRSLLCLLCSSSQEHRYHRHRPIELAA [W45L] was 0.122 ± 0.078. The value for SSEEQMCGTHRETKKIFCEVDRSLLCLLCSSSQEHRYHPHRPIEWAA [R39P] was -0.246 ± 0.12; that for SSEEQICGTHRETKKIFCEVDRSLLCLLCSSSQEHRYHRHRPIEWAA [M6I] was -0.855 ± 0.16. Take SSEEQCCGTHRETKKIFCEVDRSLLCLLCSSSQEHRYHRHRPIEWAA [M6C]: the abundance fitness is -0.568 ± 0.17. On to SSEEQDCGTHRETKKIFCEVDRSLLCLLCSSSQEHRYHRHRPIEWAA [M6D], for which the abundance fitness is -0.875 ± 0.24.

On to SSEEQACGTHRETKKIFCEVDRSLLCLLCSSSQEHRYHRHRPIEWAA [M6A], for which the abundance fitness was -0.575 ± 0.11. With SSEEQLCGTHRETKKIFCEVDRSLLCLLCSSSQEHRYHRHRPIEWAA [M6L], the abundance fitness is -0.13 ± 0.1. The value for SSEEQMCGTHRETKKIFCEVDRSLLCLLCSSSQEHRIHRHRPIEWAA [Y37I] was -0.386 ± 0.1. The value for SSEEQMCGTHRETKKIFCEVDRSLLCLLCSSSQEHRHHRHRPIEWAA [Y37H] was 0.181 ± 0.08. GSEEQMCGTHRETKKIFCEVDRSLLCLLCSSSQEHRYHRHRPIEWAA [S1G]: the abundance fitness is -0.526 ± 0.41.

With YSEEQMCGTHRETKKIFCEVDRSLLCLLCSSSQEHRYHRHRPIEWAA [S1Y], the abundance fitness was -0.277 ± 0.22. The value for SSSEQMCGTHRETKKIFCEVDRSLLCLLCSSSQEHRYHRHRPIEWAA [E3S] was -0.15 ± 0.098. In the case of SSVEQMCGTHRETKKIFCEVDRSLLCLLCSSSQEHRYHRHRPIEWAA [E3V], the abundance fitness is -0.292 ± 0.1. The value for SSKEQMCGTHRETKKIFCEVDRSLLCLLCSSSQEHRYHRHRPIEWAA [E3K] was -0.295 ± 0.22; that for SSDEQMCGTHRETKKIFCEVDRSLLCLLCSSSQEHRYHRHRPIEWAA [E3D] was 0.084 ± 0.17. The value for SSAEQMCGTHRETKKIFCEVDRSLLCLLCSSSQEHRYHRHRPIEWAA [E3A] was 0.051 ± 0.1. Regarding SSLEQMCGTHRETKKIFCEVDRSLLCLLCSSSQEHRYHRHRPIEWAA [E3L], the abundance fitness is -0.176 ± 0.1. For the variant SSEEQMCGFHRETKKIFCEVDRSLLCLLCSSSQEHRYHRHRPIEWAA [T9F], the abundance fitness was -0.469 ± 0.23. Turning to SSEEQMCGDHRETKKIFCEVDRSLLCLLCSSSQEHRYHRHRPIEWAA [T9D], the abundance fitness is -0.395 ± 0.16. As to SSEEQMCGRHRETKKIFCEVDRSLLCLLCSSSQEHRYHRHRPIEWAA [T9R], the abundance fitness was -0.078 ± 0.079.

On to SSEEQMCGTHRETKKIFCEVDRSLLCLLTSSSQEHRYHRHRPIEWAA [C29T], for which the abundance fitness is -0.861 ± 0.17. The value for SSEEQMCGTHRETKKIFCEVDRSLLCLLGSSSQEHRYHRHRPIEWAA [C29G] was -0.716 ± 0.082.
